From article PMC10998612 come the findings set out here.

The target in this experiment is eIF2 trimer (recombinant, not phosphorylated), P05198;P20042;P41091. Description: fluorescence polarisation. The note with it: chain shown with the change; 2.0 µM eIF2 trimer (highest analyte concentration); fluorescein-labeled R3 420-466 peptide as probe; parent: est. 90; read off a plot.
eIF2 trimer (recombinant, not phosphorylated), P05198;P20042;P41091, sequence (chain, as listed by the source, chain 1 of 3): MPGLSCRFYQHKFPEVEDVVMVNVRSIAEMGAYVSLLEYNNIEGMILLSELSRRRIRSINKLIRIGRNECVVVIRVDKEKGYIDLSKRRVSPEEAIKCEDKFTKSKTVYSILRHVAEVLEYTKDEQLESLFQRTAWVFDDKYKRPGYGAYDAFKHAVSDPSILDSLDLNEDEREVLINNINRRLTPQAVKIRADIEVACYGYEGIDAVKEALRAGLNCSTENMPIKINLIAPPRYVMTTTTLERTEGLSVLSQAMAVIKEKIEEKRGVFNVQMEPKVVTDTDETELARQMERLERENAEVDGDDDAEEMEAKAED
eIF2 trimer (recombinant, not phosphorylated), P05198;P20042;P41091, sequence (chain, as listed by the source, chain 2 of 3): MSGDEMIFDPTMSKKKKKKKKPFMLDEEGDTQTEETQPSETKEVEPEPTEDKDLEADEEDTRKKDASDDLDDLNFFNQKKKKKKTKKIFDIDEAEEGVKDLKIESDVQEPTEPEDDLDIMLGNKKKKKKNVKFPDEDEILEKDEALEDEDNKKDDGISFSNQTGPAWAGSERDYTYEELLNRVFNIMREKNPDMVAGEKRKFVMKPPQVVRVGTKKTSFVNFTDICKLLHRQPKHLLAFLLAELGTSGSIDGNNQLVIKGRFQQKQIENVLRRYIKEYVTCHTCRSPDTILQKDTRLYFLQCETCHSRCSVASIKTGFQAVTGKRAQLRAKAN
eIF2 trimer (recombinant, not phosphorylated), P05198;P20042;P41091, sequence (chain, as listed by the source, chain 3 of 3): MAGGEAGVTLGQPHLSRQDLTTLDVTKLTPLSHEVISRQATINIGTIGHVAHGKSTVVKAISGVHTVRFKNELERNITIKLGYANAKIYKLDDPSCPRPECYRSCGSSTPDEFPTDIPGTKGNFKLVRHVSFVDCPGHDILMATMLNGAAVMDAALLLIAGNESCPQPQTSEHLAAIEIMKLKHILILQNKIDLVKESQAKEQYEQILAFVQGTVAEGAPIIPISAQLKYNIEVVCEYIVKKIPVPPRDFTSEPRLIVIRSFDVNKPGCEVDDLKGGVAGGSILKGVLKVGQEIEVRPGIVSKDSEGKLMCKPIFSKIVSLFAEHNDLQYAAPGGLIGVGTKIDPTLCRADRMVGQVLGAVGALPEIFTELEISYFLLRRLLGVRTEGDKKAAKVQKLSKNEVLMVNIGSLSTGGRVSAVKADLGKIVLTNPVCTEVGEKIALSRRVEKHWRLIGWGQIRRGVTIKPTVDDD

For the molecule ASTPPASAALKAAVYRPGEDTEEEEDEDVDSEDKEDDSEAALGEAES, the response was 27 mP.
